Legend:
[1] = target: Drosophila non-muscle myosin II heavy chain, HMM construct (amino acids 1-1363) (Drosophila melanogaster) (UniProt Q99323); assay: co-purification (Flag affinity chromatography, stained SDS gel); heavy chain and both light chains co-expressed in Sf9 cells, purified via Flag affinity chromatography (HMM also by size exclusion chromatography); PageBlue-stained 4-12% Bis-Tris gel
[2] = target: Drosophila non-muscle myosin II heavy chain, full length (amino acids 1-1971) (Drosophila melanogaster) (UniProt Q99323); assay: as above
Sequence of Drosophila non-muscle myosin II heavy chain, full length (amino acids 1-1971) (Drosophila melanogaster) (Q99323 other isoform, or with tags, fused parts or gaps): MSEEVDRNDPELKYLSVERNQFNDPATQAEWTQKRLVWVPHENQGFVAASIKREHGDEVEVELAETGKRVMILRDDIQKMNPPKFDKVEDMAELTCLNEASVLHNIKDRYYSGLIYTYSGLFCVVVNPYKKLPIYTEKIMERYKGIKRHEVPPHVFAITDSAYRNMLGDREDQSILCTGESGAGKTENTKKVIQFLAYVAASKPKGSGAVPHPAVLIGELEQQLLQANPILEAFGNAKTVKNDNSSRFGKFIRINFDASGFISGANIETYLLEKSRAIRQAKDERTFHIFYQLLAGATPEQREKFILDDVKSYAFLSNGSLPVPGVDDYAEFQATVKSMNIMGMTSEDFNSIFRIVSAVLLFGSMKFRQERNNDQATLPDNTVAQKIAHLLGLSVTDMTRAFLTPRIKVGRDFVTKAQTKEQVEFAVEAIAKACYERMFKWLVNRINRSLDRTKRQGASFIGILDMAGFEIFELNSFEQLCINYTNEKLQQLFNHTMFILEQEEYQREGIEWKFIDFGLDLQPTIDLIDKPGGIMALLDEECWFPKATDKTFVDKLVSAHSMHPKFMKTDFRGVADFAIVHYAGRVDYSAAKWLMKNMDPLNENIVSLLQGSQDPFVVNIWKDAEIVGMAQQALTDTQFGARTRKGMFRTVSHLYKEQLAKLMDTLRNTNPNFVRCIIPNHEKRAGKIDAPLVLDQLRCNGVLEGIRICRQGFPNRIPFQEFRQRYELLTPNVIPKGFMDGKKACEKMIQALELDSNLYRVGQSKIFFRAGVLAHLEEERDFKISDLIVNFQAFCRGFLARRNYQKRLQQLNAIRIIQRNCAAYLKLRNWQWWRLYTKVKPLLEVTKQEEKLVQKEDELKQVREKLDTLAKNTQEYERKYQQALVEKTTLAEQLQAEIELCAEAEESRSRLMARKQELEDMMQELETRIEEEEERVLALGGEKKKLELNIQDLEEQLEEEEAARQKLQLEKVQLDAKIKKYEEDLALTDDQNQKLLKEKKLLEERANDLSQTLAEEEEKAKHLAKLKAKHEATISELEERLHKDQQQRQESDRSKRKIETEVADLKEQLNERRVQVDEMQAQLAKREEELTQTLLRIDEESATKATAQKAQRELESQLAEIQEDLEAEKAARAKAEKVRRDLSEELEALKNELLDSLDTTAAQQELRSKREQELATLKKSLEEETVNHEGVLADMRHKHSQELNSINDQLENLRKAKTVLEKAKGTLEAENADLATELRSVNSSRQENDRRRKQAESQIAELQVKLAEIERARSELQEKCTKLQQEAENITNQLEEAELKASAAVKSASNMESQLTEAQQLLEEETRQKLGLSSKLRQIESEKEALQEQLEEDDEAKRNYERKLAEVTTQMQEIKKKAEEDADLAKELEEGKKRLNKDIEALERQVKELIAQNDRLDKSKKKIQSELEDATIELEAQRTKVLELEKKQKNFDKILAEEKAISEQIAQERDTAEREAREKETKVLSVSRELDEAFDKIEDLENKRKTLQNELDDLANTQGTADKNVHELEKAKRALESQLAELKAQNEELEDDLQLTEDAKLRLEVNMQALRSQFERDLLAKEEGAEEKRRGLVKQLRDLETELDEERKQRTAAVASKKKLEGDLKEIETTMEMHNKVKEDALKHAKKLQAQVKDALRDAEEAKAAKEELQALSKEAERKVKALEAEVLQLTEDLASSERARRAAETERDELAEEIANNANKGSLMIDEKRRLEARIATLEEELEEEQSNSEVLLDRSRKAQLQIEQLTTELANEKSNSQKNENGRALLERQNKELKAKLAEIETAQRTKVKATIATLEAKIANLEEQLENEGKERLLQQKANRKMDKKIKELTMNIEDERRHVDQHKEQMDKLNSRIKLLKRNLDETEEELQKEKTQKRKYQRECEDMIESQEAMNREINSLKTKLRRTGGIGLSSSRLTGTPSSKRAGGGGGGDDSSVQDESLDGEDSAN

[3] = target: filamentous actin from rabbit skeletal muscle (rabbit) (UniProt P68135)
[4] = target: T1, Drosophila non-muscle myosin II heavy chain, full length (amino acids 1-1971) (Drosophila melanogaster, UniProt Q99323-2 1-1971); assay: co-purification (Flag affinity chromatography, stained SDS gel); heavy chain and both light chains co-expressed in Sf9 cells, purified via Flag affinity chromatography (HMM also by size exclusion chromatography); PageBlue-stained 4-12% Bis-Tris gel; details: partners not purified
T1 construct: the heavy chain alone, for the rows of heavy chain with each light chain; also called full-length (228 kDa); myosin heavy chain

[5] = target: T2, Drosophila non-muscle myosin II heavy chain, HMM construct (amino acids 1-1363) (Drosophila melanogaster, UniProt Q99323-2 1-1363); assay: as above; details: partners not purified
T2 construct: numbers count on: NP_001014553.1; the heavy chain alone, for the rows of heavy chain with each light chain; whether it carries the Halo tag is not clear; also called HMM (160 kDa); myosin heavy chain
T2 sequence (Q99323 other isoform, or with tags, fused parts or gaps): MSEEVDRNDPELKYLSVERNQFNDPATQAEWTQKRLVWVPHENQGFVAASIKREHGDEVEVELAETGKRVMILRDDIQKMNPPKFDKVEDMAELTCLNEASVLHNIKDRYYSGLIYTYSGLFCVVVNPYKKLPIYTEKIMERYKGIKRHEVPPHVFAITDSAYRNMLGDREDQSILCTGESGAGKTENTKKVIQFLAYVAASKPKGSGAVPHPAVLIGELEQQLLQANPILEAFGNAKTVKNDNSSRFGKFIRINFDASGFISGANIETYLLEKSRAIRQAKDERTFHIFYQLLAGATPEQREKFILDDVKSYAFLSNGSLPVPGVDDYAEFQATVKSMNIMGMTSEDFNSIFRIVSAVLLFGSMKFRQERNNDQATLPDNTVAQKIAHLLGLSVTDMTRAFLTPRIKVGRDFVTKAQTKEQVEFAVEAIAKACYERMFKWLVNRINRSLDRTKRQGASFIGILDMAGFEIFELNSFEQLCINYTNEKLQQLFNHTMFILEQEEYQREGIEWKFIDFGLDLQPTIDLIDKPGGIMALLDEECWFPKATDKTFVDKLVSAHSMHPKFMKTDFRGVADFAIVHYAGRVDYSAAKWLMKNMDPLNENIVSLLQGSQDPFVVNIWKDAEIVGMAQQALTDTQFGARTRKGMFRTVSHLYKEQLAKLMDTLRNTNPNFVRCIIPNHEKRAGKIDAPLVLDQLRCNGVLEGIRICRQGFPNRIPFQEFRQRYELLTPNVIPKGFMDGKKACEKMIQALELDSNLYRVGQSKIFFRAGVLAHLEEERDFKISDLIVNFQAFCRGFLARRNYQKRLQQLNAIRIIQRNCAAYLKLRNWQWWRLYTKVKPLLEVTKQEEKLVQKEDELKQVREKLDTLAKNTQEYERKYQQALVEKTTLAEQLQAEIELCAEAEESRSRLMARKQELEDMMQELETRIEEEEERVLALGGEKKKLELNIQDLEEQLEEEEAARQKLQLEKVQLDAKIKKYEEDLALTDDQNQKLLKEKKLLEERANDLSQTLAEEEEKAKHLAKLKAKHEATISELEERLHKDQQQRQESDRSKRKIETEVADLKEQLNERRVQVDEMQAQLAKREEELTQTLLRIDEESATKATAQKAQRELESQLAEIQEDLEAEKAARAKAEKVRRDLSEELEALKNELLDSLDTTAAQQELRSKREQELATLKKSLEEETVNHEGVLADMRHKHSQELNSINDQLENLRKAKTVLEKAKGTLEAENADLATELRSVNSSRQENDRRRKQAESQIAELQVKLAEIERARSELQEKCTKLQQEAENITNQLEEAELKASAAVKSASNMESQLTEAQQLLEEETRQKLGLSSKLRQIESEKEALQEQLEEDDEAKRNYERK

Q: What does the source list for “Drosophila myosin regulatory light chain (Sqh), mutant RLC-AS (natural protein)”?
A: stoichiometry N [1]: 1; stoichiometry N [2]: 1

Q: “Drosophila myosin regulatory light chain (Sqh), mutant RLC-EE (natural protein)” was tested. Which stoichiometry N [1] did it give?
A: Its stoichiometry N is 1.

Q: What about the stoichiometry N [2] of the same molecule?
A: Its stoichiometry N is 1.

Q: What does the source list for “Drosophila myosin regulatory light chain (Sqh), mutant RLC-TA (natural protein)”?
A: stoichiometry N [1]: 1; stoichiometry N [2]: 1

Q: Which results are given for “Drosophila myosin regulatory light chain (Sqh), mutant RLC-AE (natural protein)”?
A: stoichiometry N [1]: 1; stoichiometry N [2]: 1

Q: With “Drosophila non-muscle myosin II heavy meromyosin (HMM) with wild-type RLC, phosphorylated by MLCK (from UniProt Q99323-2 1-1363; P40423 1-174; P54357 1-147) (complex)” as the molecule, how does the Kapp (apparent actin affinity) of the actin-activated steady-state ATPase, NADH-linked assay at 25°C, 0-100 µM filamentous actin, Michaelis-Menten fit [3] read?
A: The Kapp (apparent actin affinity) of the actin-activated steady-state ATPase, NADH-linked assay at 25°C, 0-100 µM filamentous actin, Michaelis-Menten fit was 38.9 µM.

Q: With “Drosophila myosin regulatory light chain (Sqh), mutant RLC-AA (natural protein)” as the molecule, how does the stoichiometry N [1] read?
A: Its stoichiometry N is 1.

Q: What about the stoichiometry N [2] of the same molecule?
A: Its stoichiometry N is 1.

B1: Drosophila myosin regulatory light chain (Sqh), wild type (natural protein, Drosophila melanogaster, UniProt P40423 1-174, looked up)
light: MSSRKTAGRRATTKKRAQRATSNVFAMFDQAQIAEFKEAFNMIDQNRDGFVEKEDLHDMLASLGKNPTDDYLDGMMNEAPGPINFTMFLTLFGERLQGTDPEDVIKNAFGCFDEENMGVLPEDRLRELLTTMGDRFTDEDVDEMYREAPIKNGLFDYLEFTRILKHGAKDKDEQ
notes: Drosophila myosin regulatory light chain Sqh (spaghetti squash); 19 kDa on the gel; also called RLC; RLC-TS; source: Sf9 insect cells (baculovirus, polycistronic vector with Mlc-c), co-expressed and co-purified with the heavy chain
Q: For B1, which “stoichiometry N” value [4] is on record?
A: Its value is 1.

Q: And the “stoichiometry N” value [5]?
A: The value was 1.

B2: Drosophila myosin essential light chain (Mlc-c) (natural protein, Drosophila melanogaster, UniProt P54357 1-147, looked up)
light: MAAYTEDQLAEFQEAFNLFDNRGDGKIQLSQVGECLRALGQNPTESDVKKCTHQLKPDERISFEVFLPIYQAISKARSGDTADDFIEGLRHFDKDASGYISSAELRHLLTTLGEKLTDEEVEQLLANMEDQQGNINYEEFVRMVMSG
notes: Drosophila myosin essential light chain Mlc-c; 16 kDa on the gel; also called ELC; source: Sf9 insect cells (baculovirus, polycistronic vector with Sqh), co-expressed and co-purified with the heavy chain
Q: Which “stoichiometry N” value [4] does the source give for B2 here?
A: Its value is 1.

Q: And the “stoichiometry N” value [5]?
A: The value was 1.

Source: article PMC5201417, “Drosophila non-muscle myosin II motor activity determines the rate of tissue folding” (eLife, 2016)
